Measured values: publication PMC3534135, “Interaction of the Transactivation Domain of B-Myb with the TAZ2 Domain of the Coactivator p300: Molecular Features and Properties of the Complex” (PLoS ONE, 2012)

Target: T1, B-Myb transactivation domain (residues 275-376) (mouse, UniProt P48972 275-376)
T1 construct: also called B-Myb TAD
T1 sequence (looked up): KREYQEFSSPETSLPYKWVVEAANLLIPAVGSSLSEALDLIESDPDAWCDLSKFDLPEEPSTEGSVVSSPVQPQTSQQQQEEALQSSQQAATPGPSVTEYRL
Assay: NMR titration; 15N/1H HSQC of 15N-labelled p300 TAZ2 (100 µM) without and with 100 or 200 µM unlabelled B-Myb TAD; minimal shift approach; 25°C, 600 MHz; 20 mM Bis-Tris, 100 mM NaCl, 5 mM DTT, 20 µM ZnSO4, pH 5.8; Kd estimated from intermediate exchange
Conditions: both partners purified

Kd: 1 to 10 µM
B1: TAZ2 domain of the coactivator p300 (domain or fragment, human, UniProt Q09472 1726-1812, looked up)
chain: SPGDSRRLSIQRCIQSLVHACQCRNANCSLPSCQKMKRVVQHTKGCKRKTNGGCPICKQLIALCCYHAKHCQENKCPVPFCLNIKQK
notes: human p300, TAZ2 domain, residues 1726-1812, corresponding to murine CBP TAZ2; cloned into the NdeI and BamHI sites of pET23a; No tag is stated; also called p300 TAZ2
